Data as given in patent US20150025013A1.

Legend:
[1] = molecular target: (pro)renin receptor (PRR) on mpkCCD cells (UniProt Q9CYN9); assay: cell-based or functional assay
[2] = molecular target: (pro)renin receptor (PRR), mouse (mouse) (UniProt Q9CYN9); assay: cell-based or functional assay
Sequence of (pro)renin receptor (PRR), mouse (mouse) (Q9CYN9 18-350): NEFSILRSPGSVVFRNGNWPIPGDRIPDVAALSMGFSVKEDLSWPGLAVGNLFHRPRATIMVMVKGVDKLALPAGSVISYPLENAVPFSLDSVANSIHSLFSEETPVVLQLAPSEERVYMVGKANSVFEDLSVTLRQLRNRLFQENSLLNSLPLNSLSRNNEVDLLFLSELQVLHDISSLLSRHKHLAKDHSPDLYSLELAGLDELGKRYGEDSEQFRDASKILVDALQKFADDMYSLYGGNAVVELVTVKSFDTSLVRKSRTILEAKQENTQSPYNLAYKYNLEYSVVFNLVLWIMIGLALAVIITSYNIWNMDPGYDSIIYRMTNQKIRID

Sequence of (pro)renin receptor (PRR) on mpkCCD cells (Q9CYN9 18-350 limits assumed): as the sequence (Q9CYN9 18-350) above

Row | Substance | ENaC activity (Ieq) in mpkCCD cells, 10 nM for 5 min (control group 1.17+0.05 µA/cm2) [1] | pressor response (delta MAP) to ICV mouse prorenin alone in C57BI/6J mice [2] | pressor response (delta MAP) to ICV mouse prorenin in neuron-specific PRR knockout (Nefh-PRR) mice [2] | pressor response (delta MAP) to ICV mouse prorenin in wild-type mice [2]
1 | renin (cell culture experiments of Example 13) (enzyme) | 1.58 µA/cm2 |  |  | 
2 | mouse prorenin (from UniProt P06281 22-402) (ligand) |  | 31.3 mmHg | 5 mmHg | 41 mmHg
3 | prorenin (cell culture experiments of Example 13) (ligand) | 3.16 µA/cm2 |  |  | 
